According to US12421510B2, “Peptide, a complex and a method for treating cancer” (TECHNION RESEARCH & DEVELOPMENT FOUNDATION LIMITED, priority 2018, dated 2025):

Legend:
[1] = test system: glioblastoma U87-MG tumor; assay: Growth of U87-MG tumor xenografts overexpressing KPC1 species in nude mice; assay type: in vivo; settings: overexpression in U87-MG cells injected to nude mice; growth rates and weights of xenografts, three weeks after inoculation
Excerpt: FIG. 8A and FIG. 8B depict growth rates and weights of tumor xenografts grown in nude mice, and derived from U87-MG expressing V0 (control), Myc-KPC1 or Flag-WILVRLW-KPC1Δ1-1039 (SEQ ID NO: 6).
Growth rates and weights (FIG. 8B) of tumor xenografts grown in nude mice, and derived from U87-MG expressing VO (control), Myc-KPC1, and Flag-WILVRLW-KPC1Δ1-1039 (SEQ ID. No. 6).

[2] = biological target: T1, p105 (Homo sapiens, UniProt P19838); assay: Co-immunoprecipitation (Co-IP) of KPC1 species with p105-HA from transfected HEK293T cells; assay type: binding; set-up: HA; expressed in transfected cells; host or cells: HEK293T; settings: anti-FLAG immunoprecipitation, anti-NF-κB1 western blot, listed as full-length KPC1
T1 sequence (P19838 1-968): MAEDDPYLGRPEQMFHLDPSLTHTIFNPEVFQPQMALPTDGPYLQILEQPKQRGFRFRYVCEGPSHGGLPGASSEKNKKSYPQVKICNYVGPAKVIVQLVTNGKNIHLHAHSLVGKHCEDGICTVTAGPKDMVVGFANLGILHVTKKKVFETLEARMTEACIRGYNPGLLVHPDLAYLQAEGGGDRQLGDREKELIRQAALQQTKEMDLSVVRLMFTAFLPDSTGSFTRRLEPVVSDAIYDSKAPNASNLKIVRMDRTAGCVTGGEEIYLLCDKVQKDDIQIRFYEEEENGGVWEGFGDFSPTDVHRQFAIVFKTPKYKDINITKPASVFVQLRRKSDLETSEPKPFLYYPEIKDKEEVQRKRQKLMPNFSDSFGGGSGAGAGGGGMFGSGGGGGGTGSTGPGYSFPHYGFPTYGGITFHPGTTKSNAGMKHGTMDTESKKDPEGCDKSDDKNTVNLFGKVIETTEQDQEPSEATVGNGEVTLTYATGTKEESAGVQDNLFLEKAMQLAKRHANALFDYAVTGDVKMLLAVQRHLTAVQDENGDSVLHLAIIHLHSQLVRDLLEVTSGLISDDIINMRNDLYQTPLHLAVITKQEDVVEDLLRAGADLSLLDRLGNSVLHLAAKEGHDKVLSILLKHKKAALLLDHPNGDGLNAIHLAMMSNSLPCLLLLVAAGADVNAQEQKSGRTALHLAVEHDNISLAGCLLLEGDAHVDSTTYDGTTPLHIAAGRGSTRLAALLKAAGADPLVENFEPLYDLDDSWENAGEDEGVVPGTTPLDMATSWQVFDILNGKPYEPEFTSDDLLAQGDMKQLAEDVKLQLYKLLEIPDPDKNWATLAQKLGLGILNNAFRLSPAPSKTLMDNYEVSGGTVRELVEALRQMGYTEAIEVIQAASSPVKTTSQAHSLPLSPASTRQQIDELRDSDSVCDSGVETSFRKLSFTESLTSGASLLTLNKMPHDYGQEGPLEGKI
Excerpt: FIG. 1B is a western blot showing the following: HEK293T cells were transfected with cDNAs coding for p105-HA (lanes 1-6), along with the different KPC1 species as following: W.T KPC1 (lane 1), KPC1Δ969-1314 (lane 2), KPC1Δ1-438 & 1039-1314 (lane 3), KPC1Δ1-967 (lane 4) and KPC1Δ1-1042 (lane 5). Lane 6 was transfected with an empty vector. KPC1 species were immunoprecipitated using immobilized FLAG antibodies, resolved by SDS-page, and NF-κB1 and KPC1 proteins were visualized by anti-NF-κB1 (FIG. 1B (upper)) and anti-FLAG (FIG. 1B (bottom)) antibodies, respectively. 10% of the total cell lysate was analyzed for the expression of p105-HA.
FIG. 2B is a western blot. HEK293T cells were transfected with cDNAs coding for p105-HA (lanes 1-7), along with different KPC1 species as following: WT KPC1 (lane 1), KPC1Δ1-967 (lane 2), KPC1Δ967-1043 (lane 3), KPC1Δ1-973 (lane 4), KPC1Δ1-1017 (lane 5) and KPC1ΔCC domain (lane 6). Lane 7 represents cells that were transfected with empty vector. KPC1 species were immunoprecipitated using immobilized FLAG antibodies, resolved by SDS-page. NF-κB1 and KPC1 proteins were visualized with anti-NF-κB1 (FIG. 2B (i)) and anti-FLAG (FIG. 2B (ii)) antibodies, respectively. 10% of the total cell lysate was analyzed for the expression of p105-HA. FIGS. 3A and 3B: FIG. 3A is a schematic representation of KPC1 species used in the experiment shown in FIG. 3B that was directed to evaluating the region of KPC1 that is responsible for the interaction with p105.
FIG. 3B is a western blot. HEK293T cells were transfected with cDNAs coding for p105-HA (lanes 1-12), along with different KPC1 species as following: KPC1-FLAG (lane 1), WILVRLW-KPC1 Δ 1-1253 (SEQ ID NO: 8) (lane 2), ILVRLW-KPC1 Δ 1-1253 (SEQ ID NO: 10) (lane 3), LVRLW-KPC1 Δ 1-1253 (SEQ ID NO: 11) (lane 4), VRLW-KPC1 Δ 1-1253 (lane 5) (SEQ ID NO: 12), RLW-KPC1 Δ 1-1253 (lane 6) SEQ ID NO:13), KPC1 Δ 1-1253 (lane 7), WILVRL-KPC1 Δ 1-1253 (lane 8) (SEQ ID NO: 14), WILVR-KPC1 Δ 1-1253 (SEQ ID NO: 15) (lane 9), WILV-KPC1 Δ 1-1253 (SEQ ID NO: 16) (lane 10), WIL-KPC1 Δ 1-1253 (SEQ ID NO: 17 (lane 11). Lane 12 represents cells that were transfected with empty vector. KPC1 species were immunoprecipitated using immobilized FLAG antibodies, resolved by SDS-page. NF-κB1 and KPC1 proteins were visualized by anti-NF-κB1 (FIG. 3B, (i, ii) and anti-FLAG (FIG. 3B, (iii) antibodies, respectively. 10% of the total cell lysate was analyzed for the expression of p105-HA (FIG. 3B, (ii)).
HEK293T cells were transiently transfected with the various KPC1 species along with p105-HA using the j etPEI reagent. 48 hours after transfection, the cells were harvested and lysed with RIPA buffer [150 mM NaCl, 0.5% sodium deoxycholate, 50 mM Tris-HCl (pH 8.0), 0.1% SDS, and 1% NP-40, supplemented with freshly added protease inhibitors mixture]. KPC1 species proteins were immunoprecipitated with immobilized anti-FLAG, with subsequent washing of the beads five times with RIPA buffer. The immunoprecipitated proteins were resolved by SDS-PAGE (10%, FIGS. 1A, 1B, 2A and 2B, with a gel gradient, of 4-20%; FIGS. 3A and 3B), and blotted onto nitrocellulose (FIGS. 1A, 1B, 2A and 2B) or PVDF (FIGS. 3A and 3B) membranes. p105 and KPC1 species were visualized using anti-NF-κB1 or anti-FLAG antibodies, respectively.
Identification of the region of KPC1 that is responsible for the interaction with p105. In order to identify the region of KPC1 that is responsible for the interaction with p105, several truncated segments of the DNA sequence of the KPC1 protein were cloned. The truncated segments were inserted into the pCAGGS expression vector to analyze their interaction with p105 by co-immunoprecipitation (Co-IP) from cells. HEK 293T cells were transfected with cDNAs coding for p105-HA, along with different fragments of KPC1 (FIG. 1A). Species of KPC1 were immunoprecipitated using an immobilized anti-Flag antibody. […]

[3] = biological target: T1, p105; assay: Ubiquitination of p105 by purified KPC1 species in cell-free conjugation assay; assay type: biochemical; settings: reconstituted cell-free system, in vitro translated 35S-labeled p105, purified Ub, E1, E2, UbAl, ATP
Excerpt: FIGS. 4A and 4B represent western blots showing in vitro ubiquitination of p105 by mutated species of KPC1: FIG. 4A: In vitro translated and ^35S-labeled p105 was ubiquitinated by purified KPC1-Δ1-967-6xHIS (lanes 2-4) or KPC1-Δ1-974-6xHIS (lanes 5-7) in a reconstituted cell-free system. 4B) In vitro translated and ^355-labeled p105 was ubiquitinated by purified KPC1-Δ1-967-6xHIS (lanes 2,5,6), KPC1-Δ1-974-6xHIS (lane 3), KPC1-Δ967-1043-6xHIS (lane 4), WILVRLW-KPC1-Δ1-1039-6xHIS (lanes 7-8) or WILVRLW-KPC1-Δ1-1061-6xHIS (lanes 9-10) in a reconstituted cell-free system.
In order to assess if the interaction between two proteins leads to the conjugation of the substrate p105, ubiquitination reaction was performed in cell free system. The conjugation reaction was carried out in the presence of purified Ub, E1, E2, UbAl, ATP and KPC1—either wild-type or different mutant species. Samples were resolved via SDS-PAGE and the 35S-labeled p105 and its adducts were visualized using autoradiography. […] In addition, the shorter versions of KPC1 in which the 7 amino acids sequence were brought closer to RING domain, the active site of the enzyme were prepared. Both truncated KPC1 proteins that harbor the 7 amino acid sequence, WILVRLW-KPC1-Δ1-1039 (SEQ ID. No. 6) and WILVRLW-KPC1-Δ1-1061 (SEQ ID. No. 7), modified p105 (FIG. 4B, lanes 7-10).

B1: KPC1: wild-type ubiquitin ligase KPC1 (RNF123), SEQ ID NO: 2 (protein)
chain: MASKGAGMSFSRKSYRLTSDAEKSRVTGIVQEKLLNDYLNRIFSSSEHAPPAATSRKPLNFQNLPEHLDQLLQVDNEEEESQGQVEGRLGPSTVVLDHTGGFEGLLLVDDDLLGVIGHSNFGTIRSTTCVYKGKWLYEVLISSQGLMQIGWCTISCRFNQEEGVGDTHNSYAYDGNRVRKWNVTTTNYGKAWAAGDIVSCLIDLDDGTLSFCLNGVSLGTAFENLSRGLGMAYFPAISLSFKESVAFNFGSRPLRYPVAGYRPLQDPPSADLVRAQRLLGCFRAVLSVELDPVEGRLLDKESSKWRLRGQPTVLLTLAHIFHHFAPLLRKVYLVEAVLMSFLLGIVEKGTPTQAQSVVHQVLDLLWLFMEDYEVQDCLKQLMMSLLRLYRFSPIVPDLGLQIHYLRLTIAILRHEKSRKFLLSNVLFDVLRSVVFFYIKSPLRVEEAGLQELIPTTWWPHCSSREGKESTEMKEETAEERLRRRAYERGCQRLRKRIEVVEELQVQILKLLLDNKDDNGGEASRYIFLTKFRKFLQENASGRGNMPMLCPPEYMVCFLHRLISALRYYWDEYKASNPHASFSEEAYIPPQVFYNGKVDYFDLQRLGGLLSHLRKTLKDDLASKANIVIDPLELQSTAMDDLDEDEEPAPAMAQRPMQALAVGGPLPLPRPGWLSSPTLGRANRFLSTAAVSLMTPRRPLSTSEKVKVRTLSVEQRTREDIEGSHWNEGLLLGRPPEEPEQPLTENSLLEVLDGAVMMYNLSVHQQLGKMVGVSDDVNEYAMALRDTEDKLRRCPKRRKDILAELTKSQKVFSEKLDHLSRRLAWVHATVYSQEKMLDIYWLLRVCLRTIEHGDRTGSLFAFMPEFYLSVAINSYSALKNYFGPVHSMEELPGYEETLTRLAAILAKHFADARIVGTDIRDSLMQALASYVCYPHSLRAVERIPEEQRIAMVRNLLAPYEQRPWAQTNWILVRLWRGCGFGYRYTRLPHLLKTKLEDANLPSLQKPCPSTLLQQHMADLLQQGPDVAPSFLNSVLNQLNWAFSEFIGMIQEIQQAAERLERNFVDSRQLKVCATCFDLSVSLLRVLEMTITLVPEIFLDWTRPTSEMLLRRLAQLLNQVLNRVTAERNLFDRVVTLRLPGLESVDHYPILVAVTGILVQLLVRGPASEREQATSVLLADPCFQLRSICYLLGQPEPPAPGTALPAPDRKRFSLQSYADYISADELAQVEQMLAHLTSASAQAAAASLPTSEEDLCPICYAHPISAVFQPCGHKSCKACINQHLMNNKDCFFCKTTIVSVEDWEKGANTSTTSSAA
tumor growth [1]: repressed glioblastoma U87-MG tumor growth
interaction with p105 (Co-IP) [2]: an interaction between p105 and the full-length KPC1 protein was observed

B2: WILVRLW-KPC1-Δ1-1039: truncated KPC1 with the 7 amino acid sequence brought closer to RING domain, SEQ ID NO: 6 (protein)
chain: WILVRLWAFSEFIGMIQEIQQAAERLERNFVDSRQLKVCATCFDLSVSLLRVLEMTITLVPEIFLDWTRPTSEMLLRRLAQLLNQVLNRVTAERNLFDRVVTLRLPGLESVDHYPILVAVTGILVQLLVRGPASEREQATSVLLADPCFQLRSICYLLGQPEPPAPGTALPAPDRKRFSLQSYADYISADELAQVEQMLAHLTSASAQAAAASLPTSEEDLCPICYAHPISAVFQPCGHKSCKACINQHLMNNKDCFFCKTTIVSVEDWEKGANTSTTSSAA
ubiquitination of p105 [3]: modified p105
tumor growth [1]: repressed glioblastoma U87-MG tumor growth
